This note sets out measurements from US20090011000A1, “Inhibitors of Infection” (priority 2004, published 2009).

By IC50 is commonly meant the concentration that gives 50% inhibition.

The target of data set [1] is HIVNL-4.3. The following applies: single round infection assay, TZM-b1 cells. The source says:
Two days later, infection cells were lysed and expression of luciferase activity measured.
HIV Neutralization assay.
These C-terminal peptides interact with the N-terminal coiled coil of gp41 thus blocking the refolding of gp41 into the six helical bundle structure ({115}, {116}. {117} and {39}).

Data set [2] concerns rabbits. The data set can be described thus: Immunization of rabbits with chrtm5 proteoliposomes, Western blot of serum. The following applies: chrtm5 incorporated into proteoliposomes, two rounds of immunization, preliminary. Format: in vivo. How it is done: The oligomeric forms of CHRTM5 are indicated by numbers. The same pattern was obtained with serum dilutions of 1:50, 1:100 and 1:1000.
Liposome preparation. Phospholipids were dissolved in chloroform and dried under a steam of nitrogen. Lipid films were resuspended in reconstitution buffer (25 mM HEPES pH 7.4, 0.1 M KCl). The turbid MLV suspension was passed 21 times through a polycarbonate membrane to give large unilamellar vesicles (LUV) with a diameter of 100 nm. LUVs were solubilized with 20 mM β-OG for one hour at 4° C., and afterwards incubated with protein for an additional hour. The proteoliposome solution was dialyzed with a Liposomat against reconstitution buffer for three hours at room temperature. Pure proteoliposomes were separated from excess protein by gel filtration through a Sephadex G-50 column and were collected by ultracentrifugation at 250000×g for one hour at 4° C. The pellet of pure proteoliposomes was resuspended in reconstitution buffer. The proteoliposomes were used in immunization studies to determine the immunogenicity in rabbits.
chrtm5 can be incorporated into liposomes, which were used for immunization studies.

Data set [3] concerns mAb 2F5. As to the kind of experiment: Pull down assay of chrtm5 with mAb 2F5. Format: binding. How it is done: (§1) Lane 1—marker; Lane 2—control without antibody; Lane 3—mAb 2F5; and Lane 4—mAb 4E10.
(§2) Pull down assays were then performed to determine whether chrtm5 interacts with the neutralizing antibodies 2F5 and 4E10.

For data set [4], the system named is mAb 2F5 Fabs. As to the kind of experiment: chrtm5/2F5 Fab complex, Superdex 200 gel filtration and SDS-PAGE. The format is binding. The following applies: gel filtration, peak analysed by SDS-PAGE. How it is done: Chrtm5/2F5 Fab complexes were formed and purified on a Superdex 200 gel filtration column.
Fractions corresponding to the major peak shown in FIG. 10 were separated by SDS-PAGE and stained with Coomassie brilliant blue.
The oligomeric nature of chrtm5 was then further confirmed by purifying chrtm5 in complex with mAb 2F5 Fabs. This complex formation shifts the gel filtration profile to a larger molecular weight and chrtm5/2F5-Fab complexes elute at ˜12.5 ml (FIG. 10).

For data set [5], the system named is mAb 4E10. The data set can be described thus: Pull down assay of chrtm5 with mAb 4E10. The format is binding. How it is done:
as §1, §2

Where two headings read alike, the source gives them in different places.

Turning to enfuvirtide, the IC50 in data set [1] (HIVNL-4.3, luciferase activity 2 days later) turned out to be 0.2 µg/mL; in data set [1] (HIVNL-4.3, molar value in brackets), 45 nM.

B1: chrtm5: gp41 residues 118 to 200 with N-terminal HIS-tag, TEV and Enterokinase protease sites, transmembrane region, five cytoplasmic residues (protein)
chain: PCVKLTPLCVSLKCTDLKNDTNTNSSSGRMIMEKGEIKNCSFNISTSIRGKVQKEYAFFYKLDIIPIDNDTTSYKLTSCNTSV
modifications: left off: small tags and cut ends
notes: gp41 residues 118 to 200 with N-terminal HIS-tag, TEV and Enterokinase protease sites, transmembrane region, five cytoplasmic residues
On to B1, for which, in data set [2], the immunogenicity result was “immunogenic in rabbits”. Further, the “pull down by antibody 2F5” value in data set [3] is listed as “both antibodies pull down chrtm5”. For the same molecule, the “complex formation with mAb 2F5 Fabs” value in data set [4] was “the peak contains both chrtm5 and 2F5 Fab fragments”. For the same molecule, the “pull down by antibody 4E10” value in data set [5] is listed as “both antibodies pull down chrtm5”.
